# Residue numbers refer to the chain shown, from its start. Like-named read-outs stand apart in the source and are kept apart here.
# B1: 14 (protein)
# chain: MADLYENPMGLMGFEFIEFASPTPGTLEPIFEIMGFTKVATHRSKNVHLYRQGEINLILNNEPNSIASYFAAEHGPSVCGMAFRVKDSQKAYNRALELGAQPIHIDTGPMELNLPAIKGIGGAPLYLIDRFGEGSSIYDIDFVYLEGVERNPVGAGLKVIDHLTHNVYRGRMVYWANFYEKLFNFREARYFDIKGEYTGLTSKAMSAPDGMIRIPLNEESSKGAGQIEEFLMQFNGEGIQHVAFLTDDLVKTWDALKKIGMRFMTAPPDTYYEMLEGRLPDHGEPVDQLQARGILLDGSSVEGDKRLLLQIFSETLMGPVFFEFIQRKGHDGFGPDSFKVLFESVERDQVRRGVLTAD
# modifications: mutant HPPD polypeptide
# B2: 10 (protein)
# chain: B1 chain with H330D
# modifications: mutant HPPD polypeptide
# B3: 21 (protein)
# chain: B1 chain with H330D, D336H, V340A, V345I
# modifications: mutant HPPD polypeptide
# B4: 59 (protein)
# chain: B1 chain with P268G, T270E, H330D, S344R
# modifications: mutant HPPD polypeptide
# B5: 29 (protein)
# chain: B1 chain with P268S, T270S, H330D, D336H
# modifications: mutant HPPD polypeptide
# B6: 22 (protein)
# chain: B1 chain with H330D, D336H, V345I
# modifications: mutant HPPD polypeptide
# B7: 19 (protein)
# chain: B1 chain with M264R, P268G, T270E
# modifications: mutant HPPD polypeptide
# B8: 30 (protein)
# chain: B1 chain with P268S, T270S, H330D, D336H, V345K
# modifications: mutant HPPD polypeptide
# B9: 7 (protein)
# chain: B1 chain with H330D, V340A, V345I
# modifications: mutant HPPD polypeptide
# B10: 24 (protein)
# chain: B1 chain with H330D, D336H
# modifications: mutant HPPD polypeptide
# B11: 86 (protein)
# chain: B1 chain with P268G, T270E, H330D, V340Q
# modifications: mutant HPPD polypeptide
# What was measured:
# [1] = tested on: HPPD polypeptides (wild-type SEQ ID NO:1 and mutants)
# Protocol: For the generation of crude HPPD polypeptide extract in micro titer plates (MTP) for the determination of residual activity in inhibition assays, cells were grown in 40 or 150 μl LB medium containing 1% Glucose (Merck, Darmstadt, Germany) and 100 μg/ml ampicillin in a standard 96 well plate (Thermo Fisher Scientific, Waltham, USA) incubated for about 18 h in a humidity incubator at 37° C.
# 30 μl of this starter culture were added to 600 μl LB medium containing 100 μg/ml ampicillin and 150 mM Hepes (Merck, Darmstadt, Germany) as inoculum for the expression culture in 96 well plates (2 ml deep wells; HJ Bioanalytik, Erkelenz, Germany) The plates were sealed by an aluminium foil, and cells were incubated for 5 h at 37° C. on a plate shaker at 750 rpm. The expression was induced by addition of IPTG in a final concentration of 1 mM followed by further sealed incubation for about 18 h at 30° C. on a plate shaker at 750 rpm.
# Cells were harvested by centrifugation at 4° C., 2500 g for 15 min discarding the supernatant. Cell pellets were stored at −80° C. and lysed in 250 μl 1× BugBuster® (Merck, Darmstadt, Germany) in 140 mM Tris (pH 7.8), with 1:25000 diluted BNase® (Qiagen, Hilden, Germany) by incubation of the resuspended cells for 30 min at 4° C. and 1000 rpm. Lysates were clarified by centrifugation for 15 min at 4° C., 2500 g, and 150 μl supernatant were transferred in standard 96 well plate (Thermo Fisher Scientific, Waltham, USA) for subsequent testing in quadruplets.
# The activity of HPPD polypeptides was determined in absence or presence of HPPD inhibitors using the coupled HPPD activity assay (FIG. 1).
# For the determination of the residual activity, the apparent kinetic constant (kapp) of the determined substrate conversion was measured as kinetic changes in absorbance at 320 nm in a coupled assay, in that homogentisate (HGA) formed by HPPD from HPP is directly converted into the well absorbing molecule maleylacetoacetate (MAA) by a second enzyme homogentisate dioxygenase (HGD), applied in excess uniformly in all assays (see FIG. 1). The measurements were performed in 384 micro titer plates (Greiner Bio-One GmbH, Frickenhausen, Germany) by plate readers (Tecan infinite M1000 or M1000PRO, Tecan, Männedorf, Switzerland). The kcat/kM ratio of an enzymatic activity is proportional to the apparent kinetic constant kapp and is proportional to kcat/kM*[E] ([E]=enzyme concentration). […] As both kapp measurements in the presence and absence of inhibitor were performed by use of the identical enzyme sample, crude or purified, and thereby at the same enzyme concentration, the enzyme concentration eliminates from the calculation of residual activity and the ratio of both kapp directly indicates the change of kM due to the inhibition.
# [2] = tested on: E. coli cells expressing an HPPD polypeptide; test: Brown color bioassay in liquid culture, residual brown color formation (BCF), OD440 after 96 hours; type: cell-based; settings: for Control BCF OD440nm: brown color formation in absence of Cmpd. 1, culture supernatant after 96 hours, 5 mM HPP; for Residual BCF OD440nm [%]: brown color formation with Cmpd. 1 (1000 μM) relative to without, after 96 hours
# Protocol: In an additional experiment, mutant HPPD polypeptides were analyzed using the principle of a colorimetric brown color assay (as, for example, described in U.S. Pat. No. 6,768,044). Bacterial cells expressing the HPPD polypeptides according to this invention were assayed in 96 well plate format (Nunc® 96 DeepWell™ plate, Sigma-Aldrich, St. Louis, USA) for HPPD polypeptides with improved HPPD inhibitor herbicide tolerance.
# E. coli cells were grown in liquid LB medium (Carl Roth GmbH+Co. KG, Karlsruhe, Germany) containing the selection agent for the expression vector pSE420(RI)NX (WO2014/043435) and 5 mM para-hydroxyphenylpyruvate (HPP; Sigma-Aldrich, St. Louis, USA), in the presence of absence of the HPPD inhibitor herbicide e.g. Cmpd. 1 (1000 μM). An overnight culture of E. coli culture expressing one of the respective HPPD polypeptides according to this invention were adjusted to an OD600 of 0.3-0.5 in a final volume of 500 μL and incubated at 30 degree Celsius. Residual brown color formation was determined by measuring the brown color formation (BCF) in the presence and absence of Cmpd. […] Therefore, after 96 hours the culture was centrifuged and the supernatant of the culture was used to measure the optical density of the soluble brown pigment formation at 440 nm (OD440 nm).
# [3] = in the presence of Cmpd. 1, 15 μM inhibitor, high substrate concentration, kapp normalized to kapp without inhibitor
# [4] = in the presence of Cmpd. 1, 15 μM inhibitor, high substrate concentration, total change in signal normalized to no inhibitor
# [5] = in the presence of Cmpd. 2, 15 μM inhibitor, high substrate concentration, kapp normalized to kapp without inhibitor
# [6] = in the presence of Cmpd. 2, 15 μM inhibitor, high substrate concentration, total change in signal normalized to no inhibitor
# [7] = in the presence of diketonitrile (DKN), 60 μM inhibitor, high substrate concentration, kapp normalized to kapp without inhibitor
# [8] = in the presence of diketonitrile (DKN), 60 μM inhibitor, high substrate concentration, total change in signal normalized to no inhibitor
# [9] = in the presence of mesotrione (MST), 60 μM inhibitor, high substrate concentration, kapp normalized to kapp without inhibitor
# [10] = in the presence of mesotrione (MST), 60 μM inhibitor, high substrate concentration, total change in signal normalized to no inhibitor
# [11] = kapp in presence of 50 μM Cmpd. 1, normalised to kapp without inhibitor, low substrate concentration
# [12] = total change in signal in presence of 50 μM Cmpd. 1, normalised to that without inhibitor, low substrate concentration
Molecule,"Residual activity [1, 3]","Residual turnover [1, 4]","Residual activity [1, 5]","Residual turnover [1, 6]","Residual activity [1, 7]","Residual turnover [1, 8]","Residual activity [1, 9]","Residual turnover [1, 10]",Control BCF OD440nm [2],Residual BCF OD440nm [%] [2],"Residual activity [1, 11]","Residual turnover [1, 12]"
"Cc1nnc(NC(=O)c2ccc(C(F)(F)F)c(S(C)(=O)=O)c2C)o1 [Cmpd. 2, 2-methyl-N-(5-methyl-1,3,4-oxadiazol-2-yl)-3-(methylsulfonyl)-4-(trifluoromethyl)benzamide, reference compound]",39%,50%,51%,72%,86%,93%,71%,85%,2.68,18%,–,–
B1,44%,60%,82%,92%,91%,n.i,70%,89%,1.42,63%,–,–
B2,41%,66%,89%,n.i.,n.i. (no inhibition was observed under the given conditions),n.i.,82%,n.i.,1.09,65%,–,–
B3,18%,30%,73%,84%,81%,n.i,62%,89%,0.99,65%,–,–
B4,–,–,–,–,–,–,–,–,1.29,51%,19%,46%
B5,33%,59%,85%,n.i.,94%,n.i.,79%,95%,2.03,42%,–,–
B6,26%,53%,90%,n.i.,n.i,n.i.,77%,99%,1.67,58%,–,–
B7,68%,79%,92%,93%,n.i. (no inhibition was observed under the given conditions),n.i,51%,78%,1.65,60%,67%,88%
B8,39%,65%,95%,n.i.,n.i. (no inhibition was observed under the given conditions),n.i.,87%,n.i.,1.70,56%,–,–
B9,27%,38%,75%,83%,79%,92%,70%,85%,1.83,40%,–,–
B10,28%,57%,90%,n.i.,93%,n.i.,51%,68%,1.56,48%,–,–
B11,–,–,–,–,–,–,–,–,1.94,74%,23%,45%

# Source: patent publication US10597674B2, “HPPD variants and methods of use” (BASF Agricultural Solutions Seed, US LLC, priority 2015, dated 2020)
